Measurements published in patent publication US20250368745A1 (published 2025).

B1: SA301a LC-Q90A (antibody, name in Kabat numbering, V domains shown)
VH: QVQLQESGPGLVKPSQTLSLTCTVSGYSITSDYNSHWIRQPPGKGLEWIGYIHYSGSTNYNPSLKSRVTISRDTSKNQFSLKLSSVTAADTAVYYCARNYGSIYVNYFDYWGQGTLVTVSS
VL: EIVLTQSPATLSLSPGERATLSCSASSSVSYMYWYQQKPGQAPRPLIYRTSNLASGIPARFSGSGSGTDFTLTISSLEPEDFAVYYCQAYHSYPTFGGGTKVEIK
notes: IgG1 kappa
B2: SA301a LC-Q90H (antibody, name in Kabat numbering, V domains shown)
VH: QVQLQESGPGLVKPSQTLSLTCTVSGYSITSDYNSHWIRQPPGKGLEWIGYIHYSGSTNYNPSLKSRVTISRDTSKNQFSLKLSSVTAADTAVYYCARNYGSIYVNYFDYWGQGTLVTVSS
VL: EIVLTQSPATLSLSPGERATLSCSASSSVSYMYWYQQKPGQAPRPLIYRTSNLASGIPARFSGSGSGTDFTLTISSLEPEDFAVYYCQHYHSYPTFGGGTKVEIK
notes: IgG1 kappa
B3: SA301a LC-Q90V (antibody, name in Kabat numbering, V domains shown)
VH: QVQLQESGPGLVKPSQTLSLTCTVSGYSITSDYNSHWIRQPPGKGLEWIGYIHYSGSTNYNPSLKSRVTISRDTSKNQFSLKLSSVTAADTAVYYCARNYGSIYVNYFDYWGQGTLVTVSS
VL: EIVLTQSPATLSLSPGERATLSCSASSSVSYMYWYQQKPGQAPRPLIYRTSNLASGIPARFSGSGSGTDFTLTISSLEPEDFAVYYCQVYHSYPTFGGGTKVEIK
notes: IgG1 kappa
B4: SA301a LC-Q90P (antibody, name in Kabat numbering, V domains shown)
VH: QVQLQESGPGLVKPSQTLSLTCTVSGYSITSDYNSHWIRQPPGKGLEWIGYIHYSGSTNYNPSLKSRVTISRDTSKNQFSLKLSSVTAADTAVYYCARNYGSIYVNYFDYWGQGTLVTVSS
VL: EIVLTQSPATLSLSPGERATLSCSASSSVSYMYWYQQKPGQAPRPLIYRTSNLASGIPARFSGSGSGTDFTLTISSLEPEDFAVYYCQPYHSYPTFGGGTKVEIK
notes: IgG1 kappa
B5: SA301a LC-Q90I (antibody, name in Kabat numbering, V domains shown)
VH: QVQLQESGPGLVKPSQTLSLTCTVSGYSITSDYNSHWIRQPPGKGLEWIGYIHYSGSTNYNPSLKSRVTISRDTSKNQFSLKLSSVTAADTAVYYCARNYGSIYVNYFDYWGQGTLVTVSS
VL: EIVLTQSPATLSLSPGERATLSCSASSSVSYMYWYQQKPGQAPRPLIYRTSNLASGIPARFSGSGSGTDFTLTISSLEPEDFAVYYCQIYHSYPTFGGGTKVEIK
notes: IgG1 kappa
B6: SA301a LC-Q90Y (antibody, name in Kabat numbering, V domains shown)
VH: QVQLQESGPGLVKPSQTLSLTCTVSGYSITSDYNSHWIRQPPGKGLEWIGYIHYSGSTNYNPSLKSRVTISRDTSKNQFSLKLSSVTAADTAVYYCARNYGSIYVNYFDYWGQGTLVTVSS
VL: EIVLTQSPATLSLSPGERATLSCSASSSVSYMYWYQQKPGQAPRPLIYRTSNLASGIPARFSGSGSGTDFTLTISSLEPEDFAVYYCQYYHSYPTFGGGTKVEIK
notes: IgG1 kappa
B7: SA301a LC-Q90M (antibody, name in Kabat numbering, V domains shown)
VH: QVQLQESGPGLVKPSQTLSLTCTVSGYSITSDYNSHWIRQPPGKGLEWIGYIHYSGSTNYNPSLKSRVTISRDTSKNQFSLKLSSVTAADTAVYYCARNYGSIYVNYFDYWGQGTLVTVSS
VL: EIVLTQSPATLSLSPGERATLSCSASSSVSYMYWYQQKPGQAPRPLIYRTSNLASGIPARFSGSGSGTDFTLTISSLEPEDFAVYYCQMYHSYPTFGGGTKVEIK
notes: IgG1 kappa
B8: SA301a LC-Q90E (antibody, name in Kabat numbering, V domains shown)
VH: QVQLQESGPGLVKPSQTLSLTCTVSGYSITSDYNSHWIRQPPGKGLEWIGYIHYSGSTNYNPSLKSRVTISRDTSKNQFSLKLSSVTAADTAVYYCARNYGSIYVNYFDYWGQGTLVTVSS
VL: EIVLTQSPATLSLSPGERATLSCSASSSVSYMYWYQQKPGQAPRPLIYRTSNLASGIPARFSGSGSGTDFTLTISSLEPEDFAVYYCQEYHSYPTFGGGTKVEIK
notes: IgG1 kappa
B9: SA301a LC-Y91A (antibody, name in Kabat numbering, V domains shown)
VH: QVQLQESGPGLVKPSQTLSLTCTVSGYSITSDYNSHWIRQPPGKGLEWIGYIHYSGSTNYNPSLKSRVTISRDTSKNQFSLKLSSVTAADTAVYYCARNYGSIYVNYFDYWGQGTLVTVSS
VL: EIVLTQSPATLSLSPGERATLSCSASSSVSYMYWYQQKPGQAPRPLIYRTSNLASGIPARFSGSGSGTDFTLTISSLEPEDFAVYYCQQAHSYPTFGGGTKVEIK
notes: IgG1 kappa
B10: SA301a LC-Y91F (antibody, name in Kabat numbering, V domains shown)
VH: QVQLQESGPGLVKPSQTLSLTCTVSGYSITSDYNSHWIRQPPGKGLEWIGYIHYSGSTNYNPSLKSRVTISRDTSKNQFSLKLSSVTAADTAVYYCARNYGSIYVNYFDYWGQGTLVTVSS
VL: EIVLTQSPATLSLSPGERATLSCSASSSVSYMYWYQQKPGQAPRPLIYRTSNLASGIPARFSGSGSGTDFTLTISSLEPEDFAVYYCQQFHSYPTFGGGTKVEIK
notes: IgG1 kappa
B11: SA301a LC-Y91G (antibody, name in Kabat numbering, V domains shown)
VH: QVQLQESGPGLVKPSQTLSLTCTVSGYSITSDYNSHWIRQPPGKGLEWIGYIHYSGSTNYNPSLKSRVTISRDTSKNQFSLKLSSVTAADTAVYYCARNYGSIYVNYFDYWGQGTLVTVSS
VL: EIVLTQSPATLSLSPGERATLSCSASSSVSYMYWYQQKPGQAPRPLIYRTSNLASGIPARFSGSGSGTDFTLTISSLEPEDFAVYYCQQGHSYPTFGGGTKVEIK
notes: IgG1 kappa
B12: SA301a LC-Q90T (antibody, name in Kabat numbering, V domains shown)
VH: QVQLQESGPGLVKPSQTLSLTCTVSGYSITSDYNSHWIRQPPGKGLEWIGYIHYSGSTNYNPSLKSRVTISRDTSKNQFSLKLSSVTAADTAVYYCARNYGSIYVNYFDYWGQGTLVTVSS
VL: EIVLTQSPATLSLSPGERATLSCSASSSVSYMYWYQQKPGQAPRPLIYRTSNLASGIPARFSGSGSGTDFTLTISSLEPEDFAVYYCQTYHSYPTFGGGTKVEIK
notes: IgG1 kappa
B13: SA301a LC-Y91K (antibody, name in Kabat numbering, V domains shown)
VH: QVQLQESGPGLVKPSQTLSLTCTVSGYSITSDYNSHWIRQPPGKGLEWIGYIHYSGSTNYNPSLKSRVTISRDTSKNQFSLKLSSVTAADTAVYYCARNYGSIYVNYFDYWGQGTLVTVSS
VL: EIVLTQSPATLSLSPGERATLSCSASSSVSYMYWYQQKPGQAPRPLIYRTSNLASGIPARFSGSGSGTDFTLTISSLEPEDFAVYYCQQKHSYPTFGGGTKVEIK
notes: IgG1 kappa
B14: SA301a LC-Q90K (antibody, name in Kabat numbering, V domains shown)
VH: QVQLQESGPGLVKPSQTLSLTCTVSGYSITSDYNSHWIRQPPGKGLEWIGYIHYSGSTNYNPSLKSRVTISRDTSKNQFSLKLSSVTAADTAVYYCARNYGSIYVNYFDYWGQGTLVTVSS
VL: EIVLTQSPATLSLSPGERATLSCSASSSVSYMYWYQQKPGQAPRPLIYRTSNLASGIPARFSGSGSGTDFTLTISSLEPEDFAVYYCQKYHSYPTFGGGTKVEIK
notes: IgG1 kappa
B15: SA301a LC-Q90R (antibody, name in Kabat numbering, V domains shown)
VH: QVQLQESGPGLVKPSQTLSLTCTVSGYSITSDYNSHWIRQPPGKGLEWIGYIHYSGSTNYNPSLKSRVTISRDTSKNQFSLKLSSVTAADTAVYYCARNYGSIYVNYFDYWGQGTLVTVSS
VL: EIVLTQSPATLSLSPGERATLSCSASSSVSYMYWYQQKPGQAPRPLIYRTSNLASGIPARFSGSGSGTDFTLTISSLEPEDFAVYYCQRYHSYPTFGGGTKVEIK
notes: IgG1 kappa
B16: SA301a LC-Q90G (antibody, name in Kabat numbering, V domains shown)
VH: QVQLQESGPGLVKPSQTLSLTCTVSGYSITSDYNSHWIRQPPGKGLEWIGYIHYSGSTNYNPSLKSRVTISRDTSKNQFSLKLSSVTAADTAVYYCARNYGSIYVNYFDYWGQGTLVTVSS
VL: EIVLTQSPATLSLSPGERATLSCSASSSVSYMYWYQQKPGQAPRPLIYRTSNLASGIPARFSGSGSGTDFTLTISSLEPEDFAVYYCQGYHSYPTFGGGTKVEIK
notes: IgG1 kappa
B17: SA301a LC-Q90D (antibody, name in Kabat numbering, V domains shown)
VH: QVQLQESGPGLVKPSQTLSLTCTVSGYSITSDYNSHWIRQPPGKGLEWIGYIHYSGSTNYNPSLKSRVTISRDTSKNQFSLKLSSVTAADTAVYYCARNYGSIYVNYFDYWGQGTLVTVSS
VL: EIVLTQSPATLSLSPGERATLSCSASSSVSYMYWYQQKPGQAPRPLIYRTSNLASGIPARFSGSGSGTDFTLTISSLEPEDFAVYYCQDYHSYPTFGGGTKVEIK
notes: IgG1 kappa
B18: SA301a LC-Q90S (antibody, name in Kabat numbering, V domains shown)
VH: QVQLQESGPGLVKPSQTLSLTCTVSGYSITSDYNSHWIRQPPGKGLEWIGYIHYSGSTNYNPSLKSRVTISRDTSKNQFSLKLSSVTAADTAVYYCARNYGSIYVNYFDYWGQGTLVTVSS
VL: EIVLTQSPATLSLSPGERATLSCSASSSVSYMYWYQQKPGQAPRPLIYRTSNLASGIPARFSGSGSGTDFTLTISSLEPEDFAVYYCQSYHSYPTFGGGTKVEIK
notes: IgG1 kappa
B19: SA301a LC-Q90F (antibody, name in Kabat numbering, V domains shown)
VH: QVQLQESGPGLVKPSQTLSLTCTVSGYSITSDYNSHWIRQPPGKGLEWIGYIHYSGSTNYNPSLKSRVTISRDTSKNQFSLKLSSVTAADTAVYYCARNYGSIYVNYFDYWGQGTLVTVSS
VL: EIVLTQSPATLSLSPGERATLSCSASSSVSYMYWYQQKPGQAPRPLIYRTSNLASGIPARFSGSGSGTDFTLTISSLEPEDFAVYYCQFYHSYPTFGGGTKVEIK
notes: IgG1 kappa
B20: SA301a LC-Y91E (antibody, name in Kabat numbering, V domains shown)
VH: QVQLQESGPGLVKPSQTLSLTCTVSGYSITSDYNSHWIRQPPGKGLEWIGYIHYSGSTNYNPSLKSRVTISRDTSKNQFSLKLSSVTAADTAVYYCARNYGSIYVNYFDYWGQGTLVTVSS
VL: EIVLTQSPATLSLSPGERATLSCSASSSVSYMYWYQQKPGQAPRPLIYRTSNLASGIPARFSGSGSGTDFTLTISSLEPEDFAVYYCQQEHSYPTFGGGTKVEIK
notes: IgG1 kappa
B21: SA301a LC-Y91I (antibody, name in Kabat numbering, V domains shown)
VH: QVQLQESGPGLVKPSQTLSLTCTVSGYSITSDYNSHWIRQPPGKGLEWIGYIHYSGSTNYNPSLKSRVTISRDTSKNQFSLKLSSVTAADTAVYYCARNYGSIYVNYFDYWGQGTLVTVSS
VL: EIVLTQSPATLSLSPGERATLSCSASSSVSYMYWYQQKPGQAPRPLIYRTSNLASGIPARFSGSGSGTDFTLTISSLEPEDFAVYYCQQIHSYPTFGGGTKVEIK
notes: IgG1 kappa
B22: SA301a LC-Q90L (antibody, name in Kabat numbering, V domains shown)
VH: QVQLQESGPGLVKPSQTLSLTCTVSGYSITSDYNSHWIRQPPGKGLEWIGYIHYSGSTNYNPSLKSRVTISRDTSKNQFSLKLSSVTAADTAVYYCARNYGSIYVNYFDYWGQGTLVTVSS
VL: EIVLTQSPATLSLSPGERATLSCSASSSVSYMYWYQQKPGQAPRPLIYRTSNLASGIPARFSGSGSGTDFTLTISSLEPEDFAVYYCQLYHSYPTFGGGTKVEIK
notes: IgG1 kappa

These binders were tested against T1, human IL-18BP (human, UniProt O95998 31-194) (assay: BLI, apparent KD).
T1 construct: UniProt printed as 095998; also called hIL-18BP
T1 sequence: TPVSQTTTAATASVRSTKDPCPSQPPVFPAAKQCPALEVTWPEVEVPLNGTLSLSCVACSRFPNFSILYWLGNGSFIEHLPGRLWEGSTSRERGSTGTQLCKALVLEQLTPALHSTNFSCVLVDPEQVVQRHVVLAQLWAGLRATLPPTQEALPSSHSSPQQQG

Binder | Kd [nM]
B1 | 1.07
B2 | 0.25
B3 | 0.29
B4 | 0.09
B5 | 0.24
B6 | 1.04
B7 | 0.27
B8 | 0.18
B9 | 1.08
B10 | 0.26
B11 | 0.23
B12 | 0.4
B13 | 1.13
B14 | 0.1
B15 | 0.51
B16 | 0.78
B17 | 0.31
B18 | 0.41
B19 | 0.65
B20 | 0.31
B21 | 0.42
B22 | 0.13
